In doi:10.1101/2025.10.29.685329 (bioRxiv, 2025):
No end group written: not given here.

B1: GST-TfR1-61 (TfR cyto), wild type (domain or fragment, UniProt P02786 1-61, looked up)
chain: MMDQARSAFSNLFGGEPLSYTRFSLARQVDGDNSHVEMKLAVDEEENADNNTKANVTKPKR

How the values were obtained:
[1] = target: T1, GST-PGK1 (UniProt P00558 1-417); experiment: co-sedimentation
T1 sequence (looked up): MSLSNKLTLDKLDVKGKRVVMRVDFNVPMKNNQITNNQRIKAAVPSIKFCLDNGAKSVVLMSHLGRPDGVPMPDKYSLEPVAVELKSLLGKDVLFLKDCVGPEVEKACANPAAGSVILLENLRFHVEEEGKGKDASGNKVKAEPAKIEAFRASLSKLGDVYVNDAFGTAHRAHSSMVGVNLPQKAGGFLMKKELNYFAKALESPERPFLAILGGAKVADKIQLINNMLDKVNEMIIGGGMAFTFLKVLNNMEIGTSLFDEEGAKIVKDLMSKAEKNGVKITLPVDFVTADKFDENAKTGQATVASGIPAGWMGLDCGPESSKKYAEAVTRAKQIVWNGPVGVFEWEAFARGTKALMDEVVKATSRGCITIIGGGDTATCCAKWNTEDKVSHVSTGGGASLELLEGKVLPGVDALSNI

[2] = target: T2, His-PGK1 (UniProt P00558 1-417); experiment: pull-down
T2 sequence (looked up): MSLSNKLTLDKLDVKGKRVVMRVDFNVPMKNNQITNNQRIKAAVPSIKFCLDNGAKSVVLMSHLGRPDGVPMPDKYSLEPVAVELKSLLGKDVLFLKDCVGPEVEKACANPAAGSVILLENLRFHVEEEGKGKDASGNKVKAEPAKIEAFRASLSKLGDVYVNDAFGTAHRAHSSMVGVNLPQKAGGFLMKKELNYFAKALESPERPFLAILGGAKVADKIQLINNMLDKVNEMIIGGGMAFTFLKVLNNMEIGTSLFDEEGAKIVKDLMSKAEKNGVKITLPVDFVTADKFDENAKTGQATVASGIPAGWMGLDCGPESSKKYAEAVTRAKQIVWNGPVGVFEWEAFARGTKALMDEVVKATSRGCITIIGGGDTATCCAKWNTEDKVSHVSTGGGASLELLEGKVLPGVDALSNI

Binder | binding result [1] | binding result [2]
HHHHHHSAFSNLFGGEPLSYTRFSL (not fully specified) [His-Tyr peptide (lipid-linked tyrosine-based motif)] | binds | –
B1 | – | binds
